Measurements reported in patent US20220362357A1, “Synergistic Combinations of Amino Acid Depletion Agent Sensitizers (AADAS) and Amino Acid Depletion Agents (AADA), and Therapeutic Methods of Use Thereof” (STICHTING RADBOUD UNIVERSITAIR MEDISCH CENTRUM, priority 2018, published 2022).

Tested on: Nalm6, Sem and Reh cells
Experiment: ASNase and ibrutinib 7 day treatment of ALL cell lines: SubG1, PARP cleavage, amine staining, colony assay
Format: cell-based, human
Details: 7 days; 1 IU/ml ASNase, ibrutinib 1 or 10 μM; FIGS. 4D, 4E, 4F & 4H
Procedure: BTK inhibition. […] Cell viability was then measured by cell cycle distribution, (FIGS. 4C & 4D), and by blotting for the apoptosis marker PARP and calculating the ratio between cleaved and uncleaved PARP protein or (FIG. 4E) by amine staining (FIG. 4F).

B1: ASNase: native E. coli ASNase (NCBI WP_000394140.1), used in the in vitro studies (protein, UniProt P00805 23-348, looked up)
L-asparaginase 2: LPNITILATGGTIAGGGDSATKSNYTVGKVGVENLVNAVPQLKDIANVKGEQVVNIGSQDMNDNVWLTLAKKINTDCDKTDGFVITHGTDTMEETAYFLDLTVKCDKPVVMVGAMRPSTSMSADGPFNLYNAVVTAADKASANRGVLVVMNDTVLDGRDVTKTNTTDVATFKSVNYGPLGYIHNGKIDYQRTPARKHTSDTPFDVSKLNELPKVGIVYNYANASDLPAKALVDAGYDGIVSAGVGNGNLYKSVFDTLATAAKTGTAVVRSSRVPTGATTQDAEVDDAKYGFVASGTLNPQKARVLLQLALTQTKDPQQIQQIFNQY
B1 was tested, and the apoptotic killing efficacy was “relatively small effect”.
